Experimental findings from article PMC2600739 (The Journal of Cell Biology, 2008) are described below.

As usually defined, the stoichiometry N is the number of molecules, sites or subunits per partner or assembly.

The series deals with the molecule itself. The series is described as follows: cross-linking.

B1: JAM-L–HA (p513-JAM-L-HA vector), wild type (natural protein, human, UniProt Q86YT9 20-394, looked up)
chain: LNDLNVSPPELTVHVGDSALMGCVFQSTEDKCIFKIDWTLSPGEHAKDEYVLYYYSNLSVPIGRFQNRVHLMGDILCNDGSLLLQDVQEADQGTYICEIRLKGESQVFKKAVVLHVLPEEPKELMVHVGGLIQMGCVFQSTEVKHVTKVEWIFSGRRAKEEIVFRYYHKLRMSVEYSQSWGHFQNRVNLVGDIFRNDGSIMLQGVRESDGGNYTCSIHLGNLVFKKTIVLHVSPEEPRTLVTPAALRPLVLGGNQLVIIVGIVCATILLLPVLILIVKKTCGNKSSVNSTVLVKNTKKTNPEIKEKPCHFERCEGEKHIYSPIIVREVIEEEEPSEKSEATYMTMHPVWPSLRSDRNNSLEKKSGGGMPKTQQAF
In the case of B1, the “stoichiometry N” value turned out to be 2.
